Test results reported in patent publication US20160312212A1 (ROCHE SEQUENCING SOLUTIONS, published 2016).
Where no end group is shown, it is not given here. The star is where a group is joined. Biotin = O=C1N[C@H]2[C@H](CS[C@H]2CCCCC(=O)*)N1

Biological target: Thrombin (UniProt P00734 328-622)
Test: SPR (Biacore X100), multiple-cycle kinetics; biotinylated peptide on streptavidin chip, thrombin 0 to 50 nM as analyte
Description: Two peptides were further prepared (synthesized and purified by Peptide 2.0) with the following sequences: a) Biotin—[…] GCG (SEQ ID NO:367) and b) Biotin—[…] (SEQ ID NO:368). The binding affinities of each peptide towards thrombin were tested on a Biacore X100 system.
In brief, 50 ul of 100 ug/ml of streptavidin (in 10 mM NaAc, 0.1 mM EDTA, 1 mM NaCl, 1 mM DTT pH 4.6) was immobilized onto a sensor chip CM5 that was pre-activated with NHS/EDC at a flow rate of 5 μl/min. After ethanolamine deactivation, biotinylated peptides (10 ng/ml) were injected and captured. Following the standard protocol for multiple-cycle kinetics, a series of injections of thrombin were then performed at 0 nM, 3.125 nM, 6.25 nM, 12.5 nM, 25 nM and 50 nM. After each injection, the sensor surface was regenerated for 2 min with 10 mM Glycine-HCl, pH 1.7 (from GE). The sensogram was recorded (see FIG. 5) and kinetic constants were derived by global fitting to a 1:1 Langmuir binding model using the BIAcore X100 Evaluation Software.

B1: Biotin-GCTSVHQETKKYQSRDPGRLIFQSSYTYNYEHVDVWGCG (designed binder)
peptide: Biotin-GCTSVHQETKKYQSRDPGRLIFQSSYTYNYEHVDVWGCG
modifications: cysteine pairing not given here
notes: Synthetic peptide (Peptide 2.0), captured on a streptavidin CM5 chip; also called peptide a)
fold change in KD against the linear peptide without cow antibody scaffold sequences (SEQ ID NO:368): > 40 fold
